Patent publication US20220010021A1 (Sanofi, published 2022)

T1: human beta-Klotho (KLB) (human, UniProt Q86Z14 53-997)
T1 construct: also called human KLB
T1 sequence (looked up): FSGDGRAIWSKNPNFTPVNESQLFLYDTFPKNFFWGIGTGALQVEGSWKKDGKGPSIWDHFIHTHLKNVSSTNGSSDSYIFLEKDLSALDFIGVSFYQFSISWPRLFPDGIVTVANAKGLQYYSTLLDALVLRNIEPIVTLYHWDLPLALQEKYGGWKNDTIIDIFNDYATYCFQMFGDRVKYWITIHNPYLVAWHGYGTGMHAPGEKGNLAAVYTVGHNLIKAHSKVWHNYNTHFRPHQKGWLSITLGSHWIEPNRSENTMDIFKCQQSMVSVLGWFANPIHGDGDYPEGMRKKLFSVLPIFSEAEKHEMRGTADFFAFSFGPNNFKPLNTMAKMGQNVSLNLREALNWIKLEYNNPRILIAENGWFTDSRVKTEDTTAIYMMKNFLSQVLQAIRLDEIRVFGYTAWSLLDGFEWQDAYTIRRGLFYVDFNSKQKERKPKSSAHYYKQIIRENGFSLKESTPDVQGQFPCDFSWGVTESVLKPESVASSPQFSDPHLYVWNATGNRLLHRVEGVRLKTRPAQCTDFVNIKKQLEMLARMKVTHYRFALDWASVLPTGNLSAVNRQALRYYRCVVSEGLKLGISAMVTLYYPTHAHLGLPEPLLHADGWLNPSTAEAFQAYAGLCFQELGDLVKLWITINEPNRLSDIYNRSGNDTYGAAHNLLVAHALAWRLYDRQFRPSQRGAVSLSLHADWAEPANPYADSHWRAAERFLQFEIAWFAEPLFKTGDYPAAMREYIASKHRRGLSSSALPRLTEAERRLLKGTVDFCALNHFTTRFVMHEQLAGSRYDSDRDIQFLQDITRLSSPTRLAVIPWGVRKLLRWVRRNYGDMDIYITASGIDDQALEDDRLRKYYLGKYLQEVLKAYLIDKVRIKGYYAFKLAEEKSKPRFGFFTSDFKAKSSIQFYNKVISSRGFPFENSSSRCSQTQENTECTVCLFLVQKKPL


Legend:
[1] = target: human FGFR1c/KLB cell surface receptor complex on iLite FGF21 reporter cells (human, UniProt P11362 22-822; Q86Z14 1-1044); assay: cell-based or functional assay; on Mean E max (%): reference of the scale not given here
Sequence of human FGFR1c/KLB cell surface receptor complex on iLite FGF21 reporter cells (P11362 22-822, chain 1 of 2): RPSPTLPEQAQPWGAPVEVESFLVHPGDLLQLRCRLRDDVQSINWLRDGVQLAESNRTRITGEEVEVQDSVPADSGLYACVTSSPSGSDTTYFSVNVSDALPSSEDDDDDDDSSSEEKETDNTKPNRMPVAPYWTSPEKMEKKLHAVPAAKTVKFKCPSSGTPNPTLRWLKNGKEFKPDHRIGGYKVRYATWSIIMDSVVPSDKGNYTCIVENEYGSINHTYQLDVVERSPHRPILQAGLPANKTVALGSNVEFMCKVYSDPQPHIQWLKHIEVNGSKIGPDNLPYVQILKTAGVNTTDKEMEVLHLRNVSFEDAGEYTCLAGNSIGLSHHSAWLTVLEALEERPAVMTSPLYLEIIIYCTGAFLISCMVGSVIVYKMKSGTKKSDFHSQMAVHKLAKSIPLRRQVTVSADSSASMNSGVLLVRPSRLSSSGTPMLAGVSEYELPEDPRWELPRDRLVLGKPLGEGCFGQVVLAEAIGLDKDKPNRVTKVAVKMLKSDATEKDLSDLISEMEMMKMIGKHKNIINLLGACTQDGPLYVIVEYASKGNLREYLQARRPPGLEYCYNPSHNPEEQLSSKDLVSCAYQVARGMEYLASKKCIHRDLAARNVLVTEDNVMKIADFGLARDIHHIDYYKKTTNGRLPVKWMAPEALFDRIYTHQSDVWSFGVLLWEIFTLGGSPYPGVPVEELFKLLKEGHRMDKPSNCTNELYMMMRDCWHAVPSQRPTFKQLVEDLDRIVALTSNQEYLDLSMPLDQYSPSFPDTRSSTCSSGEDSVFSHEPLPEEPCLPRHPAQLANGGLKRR
Sequence of human FGFR1c/KLB cell surface receptor complex on iLite FGF21 reporter cells (Q86Z14 whole entry, chain 2 of 2): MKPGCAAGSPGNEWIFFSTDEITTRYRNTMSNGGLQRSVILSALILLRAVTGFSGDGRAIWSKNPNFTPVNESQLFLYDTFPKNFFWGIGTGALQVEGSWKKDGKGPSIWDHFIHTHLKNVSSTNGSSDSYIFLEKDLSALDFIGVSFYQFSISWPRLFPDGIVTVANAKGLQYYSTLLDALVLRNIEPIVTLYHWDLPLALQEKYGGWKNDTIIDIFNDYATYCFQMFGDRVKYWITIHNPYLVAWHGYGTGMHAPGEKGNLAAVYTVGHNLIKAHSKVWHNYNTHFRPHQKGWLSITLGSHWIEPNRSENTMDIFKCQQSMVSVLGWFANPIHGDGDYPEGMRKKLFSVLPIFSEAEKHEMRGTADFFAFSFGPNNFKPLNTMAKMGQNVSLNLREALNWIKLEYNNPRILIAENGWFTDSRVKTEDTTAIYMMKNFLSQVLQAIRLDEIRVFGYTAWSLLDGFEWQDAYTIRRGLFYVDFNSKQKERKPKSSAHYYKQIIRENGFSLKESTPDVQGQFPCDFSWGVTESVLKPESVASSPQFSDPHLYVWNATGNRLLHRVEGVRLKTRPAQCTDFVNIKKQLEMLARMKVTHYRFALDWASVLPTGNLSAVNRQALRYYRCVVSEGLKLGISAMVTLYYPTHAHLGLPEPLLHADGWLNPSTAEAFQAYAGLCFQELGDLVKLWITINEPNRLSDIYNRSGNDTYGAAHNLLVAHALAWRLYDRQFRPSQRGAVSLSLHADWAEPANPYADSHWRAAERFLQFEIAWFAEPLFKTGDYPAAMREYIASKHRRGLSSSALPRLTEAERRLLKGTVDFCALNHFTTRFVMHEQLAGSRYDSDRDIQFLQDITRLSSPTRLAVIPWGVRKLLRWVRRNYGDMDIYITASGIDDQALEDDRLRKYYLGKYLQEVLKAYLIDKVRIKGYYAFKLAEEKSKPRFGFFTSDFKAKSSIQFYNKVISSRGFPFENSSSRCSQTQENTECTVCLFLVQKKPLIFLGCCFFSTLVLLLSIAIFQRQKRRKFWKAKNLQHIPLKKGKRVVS

[2] = target: T1, human beta-Klotho (KLB); assay: BLI off-rate screen (Octet), Ab captured via Fc;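 further: antibody supernatants applied at 25 µg/mL, dissociation monitored over 1800 s in D-PBS with 0.1% BSA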

Binder	Mean E max (%) [1]	Mean EC50 [1]	koff [2]
16H7 variant, light chain N25G (antibody, human IgG4 S228P, lambda, V domains shown, IgG4 backbone) VH: not shown VL: SYVLTQPPSVSVAPGQTARITCGGGNIGSESVHWYQQKPGQAPVLVVYDDSDRPSGIPERFSGSNSGNTATLTISRVEAGDEADYYCQVWDGNSDHVVFGGGTKLTVLG	100%	0.118 nM	3.2e-05 s⁻¹
16H7 variant, light chain N25Y (antibody, human IgG4 S228P, lambda, V domains shown, IgG4 backbone) VH: not shown VL: SYVLTQPPSVSVAPGQTARITCGGYNIGSESVHWYQQKPGQAPVLVVYDDSDRPSGIPERFSGSNSGNTATLTISRVEAGDEADYYCQVWDGNSDHVVFGGGTKLTVLG	104%	0.099 nM	3.1e-05 s⁻¹
16H7 variant, light chain N25K (antibody, human IgG4 S228P, lambda, V domains shown, IgG4 backbone) VH: not shown VL: SYVLTQPPSVSVAPGQTARITCGGKNIGSESVHWYQQKPGQAPVLVVYDDSDRPSGIPERFSGSNSGNTATLTISRVEAGDEADYYCQVWDGNSDHVVFGGGTKLTVLG	110%	0.182 nM	3.3e-05 s⁻¹
16H7 variant, light chain N25P (antibody, human IgG4 S228P, lambda, V domains shown, IgG4 backbone) VH: not shown VL: SYVLTQPPSVSVAPGQTARITCGGPNIGSESVHWYQQKPGQAPVLVVYDDSDRPSGIPERFSGSNSGNTATLTISRVEAGDEADYYCQVWDGNSDHVVFGGGTKLTVLG	106%	0.132 nM	1.2e-05 s⁻¹
16H7 variant, light chain N26F (antibody, human IgG4 S228P, lambda, V domains shown, IgG4 backbone) VH: not shown VL: SYVLTQPPSVSVAPGQTARITCGGNFIGSESVHWYQQKPGQAPVLVVYDDSDRPSGIPERFSGSNSGNTATLTISRVEAGDEADYYCQVWDGNSDHVVFGGGTKLTVLG	95%	0.158 nM	5.4e-05 s⁻¹
16H7 variant, light chain N26I (antibody, IgG4, V domains shown, IgG4 backbone; copies: 2 + 2) VH: not shown VL: SYVLTQPPSVSVAPGQTARITCGGNIIGSESVHWYQQKPGQAPVLVVYDDSDRPSGIPERFSGSNSGNTATLTISRVEAGDEADYYCQVWDGNSDHVVFGGGTKLTVLG	110%	0.113 nM	6.3e-05 s⁻¹
16H7 variant, light chain N25M (antibody, human IgG4 S228P, lambda, V domains shown, IgG4 backbone) VH: not shown VL: SYVLTQPPSVSVAPGQTARITCGGMNIGSESVHWYQQKPGQAPVLVVYDDSDRPSGIPERFSGSNSGNTATLTISRVEAGDEADYYCQVWDGNSDHVVFGGGTKLTVLG	102%	0.131 nM	3.1e-06 s⁻¹
16H7 variant, light chain N26D (antibody, IgG4, V domains shown, IgG4 backbone; copies: 2 + 2) VH: not shown VL: SYVLTQPPSVSVAPGQTARITCGGNDIGSESVHWYQQKPGQAPVLVVYDDSDRPSGIPERFSGSNSGNTATLTISRVEAGDEADYYCQVWDGNSDHVVFGGGTKLTVLG	101%	0.123 nM	5.6e-05 s⁻¹
16H7 variant, light chain N26K (antibody, human IgG4 S228P, lambda, V domains shown, IgG4 backbone) VH: not shown VL: SYVLTQPPSVSVAPGQTARITCGGNKIGSESVHWYQQKPGQAPVLVVYDDSDRPSGIPERFSGSNSGNTATLTISRVEAGDEADYYCQVWDGNSDHVVFGGGTKLTVLG	104%	0.143 nM	1e-07 s⁻¹
16H7 variant, light chain N25T (antibody, human IgG4 S228P, lambda, V domains shown, IgG4 backbone) VH: not shown VL: SYVLTQPPSVSVAPGQTARITCGGTNIGSESVHWYQQKPGQAPVLVVYDDSDRPSGIPERFSGSNSGNTATLTISRVEAGDEADYYCQVWDGNSDHVVFGGGTKLTVLG	111%	0.117 nM	2.3e-05 s⁻¹
16H7 variant, light chain N26H (antibody, human IgG4 S228P, lambda, V domains shown, IgG4 backbone) VH: not shown VL: SYVLTQPPSVSVAPGQTARITCGGNHIGSESVHWYQQKPGQAPVLVVYDDSDRPSGIPERFSGSNSGNTATLTISRVEAGDEADYYCQVWDGNSDHVVFGGGTKLTVLG	112%	0.138 nM	3.5e-05 s⁻¹
16H7 variant, light chain N25I (antibody, human IgG4 S228P, lambda, V domains shown, IgG4 backbone) VH: not shown VL: SYVLTQPPSVSVAPGQTARITCGGINIGSESVHWYQQKPGQAPVLVVYDDSDRPSGIPERFSGSNSGNTATLTISRVEAGDEADYYCQVWDGNSDHVVFGGGTKLTVLG	104%	0.122 nM	2.2e-05 s⁻¹
16H7 variant, light chain N26C (antibody, IgG4, V domains shown, IgG4 backbone; copies: 2 + 2) VH: not shown VL: SYVLTQPPSVSVAPGQTARITCGGNCIGSESVHWYQQKPGQAPVLVVYDDSDRPSGIPERFSGSNSGNTATLTISRVEAGDEADYYCQVWDGNSDHVVFGGGTKLTVLG	103%	0.146 nM	1e-07 s⁻¹
